Test: label from the status in PepcDB records
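Also: failed if final PepcDB status was selected cloned or expressed and not failed if soluble or beyond.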

| Sequence | protein production |
| --- | --- |
| MGDASINIDKETVANYFVIKQGGPINRDHWTVTANTEEKTGEVSAAYPHNGQTISLIDGEINTFWHSKWQGGEVAPPYEIILDMGKENSVSQLGLIARQNALTSMNLEIYAGDDGETWNLIGKYFFDGSIKTEQMVPVKACDARWIRIYIPTLGSGSSVGHLAEIYVYGTDKLEHHHHHH | not failed |
| MGDREKNVGFAASLNILFTIIELIGGILTNSLALLADAMHDFADSLALIVAWFAEKKAKKPATSKMTFGYRRLSLLSAAFATIVLIAGSLFILSQAIPRLLNPEPVNAEGMFLIAIIGVTINGLGYFRLKKGISQNEKILSWHLLEDILGWVVLLIGSVIIGFWNQPIIDPIMTIGFTIFVLWGVFKNAKETFNLLLEGVPEYIDIDEVKESILSVEGTKAVHDLHIWSLEGETDILTAHVVVEDEYLARPDKMRQSIKSRLEKHQIEHSTLELESEGFCSGTECIFELKG | failed |
| MGDSAPARIDTLEIKLLFAGDIMTHGPQIESAKCEGGRVYDFSSSFDTLASRIGAADLAIGNLETTFAGAPYSGYPTFSSPDAMGEALKNAGFDVLTTANNHTADKGKKGIIRTLDMLDSLGIAHTGSYRDIFDRDKMTPLILEVKGVRIAILAYTYGTNGMPVPAPTWVDPIDTVMIKKDLLRADSLGADYRIVQIHWGIEYRKEPDSEQLELARKLHRYGADAIIGSHPHVVQGSQWLKSDSKTSFVIYSMGNFISNQRKPAATRGGMLLSLTLRKVGDRITTHPDYQYVFVNKRTPQGKRVYRLLPVDPFSSDTLPSLPPEEQRDYKEFAKYYQMIPLVLIEREDNRIRNRLQVSQRAFLEHHHHHH | failed |
| MGDTKVETISRLAQWRIENFGPCSFKKSDPFKVGIWNWHLSIERNRYLSVRLFPELSRVSKEQPPVAKFVLRVSNVGPNRRFYISPVYEKLLRTTDDCVWHVDSSFHGRFTIDVEFLDLKICPVNGGEASPVWPTDATMQSISTQTTLKCLSRMLEESILTDVIIHTADGTLSAHKAILSASSTVFKSMFHHDLMEKESSTIHIDDMSRESCMALLSYLYGNITQEEFWKHRLALLGAANKYDITDLKAACEESLMEDINSSNVLERLQEAWLYQLEKLKKGCLMYLFDFGKIYDVREEISSFFRQADRELMLEMFQEVLSVWKPV | failed |
| MGEGGEMGVGIFQIDMDWLHRWLRHRRGPGSGKTSGNRNLKPRLTPAAAQQDHRQMLCFMTLNAAVGVLIGICVGAALIFLDIGGLGARIGRAASPFVPVLLVVVPIASLFGAAAAASAILLMPYEKKFRDDDDDARGE | failed |
| MGEKELIRVGVVGTGYMGENHVRIYSEMEDVRLIGISDPNSSRVKELAARYETLPFSDHKKMFGKTNLDAISIAAPTTLHCPIVLDALEAGVDVLVEKPIADSVENATAMIESAEEMDRHLMVGHIERFNPAVLKLKEVVDSGVLGKIVSV | failed |
| MGFPRSIVLIAALLGGAVSGLTACSSFPFWSAGKEEDTDIKDEHADWGPAQFYAEAKHAMMDGSYDKAIKLYEKLEARYPFGDYATQAQIDVAFCYYKNNEPESAIAAVDRFIKLNPTEPHVDYAYYLRGLINYNRGIGFIDRWLPTDSSQRDPGSARDAYNDFETLLNKFPNSVYREDARQRAIALRNNLAMYDIHVADYYMRRRAYVAAIRRSAEVVQKYQRTQAIPHALRIMEDAYRQLDMPQMADDIARVYALNYAEGRLSKDEDYERTVMEEVWDFIGFDK | failed |
| MGGAGLDNAQNVRNQTQNQTKPIHVSDRNEAFNRHNENEQFGYVRYQKEQFDGEQQKTPVMNREETAHMISSLTVQLPHIQDAATLVTDREALVVYKTDSKNRELTADQVKKTAASVIPRYYHVYISDNPNHMQSVENYSNLGSGSRDIREIMSGTIQEMKTSPQGSPVSENENANGETRQDMKIDRNDKNARLEHHHHHH | not failed |
| MGGGNAQKSAMARAKNLEKAKAAGKGSQLEANKKAMSIQCKVCMQTFICTTSEVKCREHAEAKHPKADVVACFPHLKK | not failed |
| MGGNETRELPIINLSDKNLKQNTELWSFTRDSVREAMEHHGWFVAEYNNFPTGLHQSILEAAKELLDLPVEIKLKNENHKAGHGYITMMSDGQPVHEGLGIDQVNDVQQCRGFSRLMWPDDHDDNDRFCETVHAYAKMQAELEQLVIRMLFESYNVEKYTEKYIGGTRYLLRLLKYRRLPNGEPNRKFISHTDKSFISILHQNHITGLMLKSEKEDVWYHFTPSPTRFVVIAGDAIMAWSNDRIKACYHKVEMESVEMRYSLGFFSFQEGMISTPEEMVDKDHPLAYNPFHHDGLLEYYETLEVHLKAHRTMTKAYCGIP | failed |
| MGGRVTDVYNAFVPLVHISNNSTSDTNKAKENIISKLLDILSGIFVPIIHAIIGAGLLKGILIFLNFYHLVSPATSTYKLLSVFSDSAFYFMPILLAYSSAKKFKTNKYVAVAIAGILVHPELISMMSKSASVKFFGIPFTSATYSTSVLPIILGVWVMSYIERGLNKIIPKILRTVLVPLFTLLITAPIILGILGPIGTIVGDAIGQGTVQLYLHYGVIAGILVGAAYPFLVIMGMHVGFTPVMVQSLSKYGVDYMMGIFVASNSAEAGATTAVWLKTKNKQLKEIAGSSALNAIIGVTEPALFGVTSKLKKPLIAVSIGGAVGGGIAGLFKVAAQGAGTGPIAGIPLFFGKTFIWFIISCLVSYVVSFILAYVIGFEDIPNPEDLSQKNSMDNHEKIVTTVVANQSVADPVNGNVIPLSEVKDNVFSSKMMGDGAAIVPNDNKIYAPFDGVVELVFETKHAIGLKSYDGCELLIHVGLDTVELKGKHFISHVIKDQKVKKGDLLLEFDREAISKEGYDTTIPVIVTNSKDFENITKTKKKQLQHGEELLKLTAKNKEN | failed |
| MGHGIEVLPDLFCYTIQIVNICFVGNPESNDFVLVDAGMPKCANEIISVAEDRFGTNSRPKAIILTHGHFDHVGGIIELIKYWDVPVYAHQMEIPFLTGQQSYPEPDSTVEGGMIAKMSPLFPNEPIDLGNSIKVLPTDGTVPHMPDFRWIHTPGHTPGHISLFREKDRTLIAGDAFVTVKQEYLYKVITQEQEISGPPRYLTTDWKAAKESVITLEKLKPLSAVTGHGIPMSGELLSTSLKTLAQEFDKIAVPDYGKYVDKKLEHHHHHH | failed |
| MGHHHHHHSHAAAMANNLQKGSAGPMRLYVGSLHFNITEDMLRGIFEPFGRIESIQLMMDSETGRSKGYGFITFSDSECAKKALEQLNGFELAGRPMKVGHVTERTD | not failed |
| MGHHHHHHSHCSSCSTPLYDQGGPVEILPFLYLGSAYHASRKDMLDALGITALINVSANCPNHFEGHYQYKSIPVEDNHKADISSWFNEAIDFIDSIKNAGGRVFVHCQAGISRSATICLAYLMRTNRVKLDEAFEFVKQRRSIISPNFSFMGQLLQFESQVLAPHCSAEAGSPAMAVLDRGTSTTTVFNFPVSIPVHSTNSALSYLQSPITTSPSC | failed |
| MGHHHHHHSHDDLEVGSIYRGKITRVEKYGVFVSLNSHVWGLMRGLFPDYKVGDELFVRVSQVKPYKGEVDMIPASIKGP | not failed |
| MGHHHHHHSHEELPPTTELEEGLRNGVYLAKLAKFFAPKMVSEKKIYDVEQTRYKKSGLHFRHTDNTVQWLRAMESIGLPKIFYPETTDVYDRKNIPRMIYCIHALSLYLFKLGIAPQIQDLLGKVDFTEEEISNMRKELEKYGIQMPSFSKIGGILANELS | failed |
| MGHHHHHHSHELLVVGSRPELGRWEPRGAVRLRPAGTAAGDGALALQEPGLWLGEVELAAEEAAQDGAEPGRVDTFWYKFLKREPGGELSWEGNGPHHDRCCTYNENNLVDGVYCLPIGHWIEATGHTNEMKHTTDFYFNIAGHQAMHYSRILPNIWLGSCPRQVEHVTIKLKHELGITAVMNFQTEWDIVQNSSGCNRYPEPMTPDTMIKLYREEGLAYIWMPTPDMSTEGRVQMLPQAVCLLHALLEKGHIVYVHCNAGVGRSTAAVCGWLQYVMGWNLRKVQYFLMAKRPAVYI | failed |
| MGHHHHHHSHLCTNFFIFTGGPGSGKTAVLNELNTWGYLTVSEVARSIIQKQQADGGDAIHTGNRKAFRDLMLEQSIADYCKMQSEEKIVFFDRGIPDLYGYSKAFCGEASKEVNEAVGRFRYNKTVFIFPPWPEIYENDDERQQDYQEALQTYYAVKEGYFDCGYVLLEVPKCPIKDRANFIFQMISKNG | not failed |
| MGHHHHHHSHMAAPEAEVLSSAAVPDLEWYEKSEETHASQIELLETSSTQEPLNASEAFCPRDCMVPVVFPGPVSQEGCCQFTCELLKHIMYQRQQLPLPYEQLKHFYRKPSPQAEEMLKKKPRATTEVSSRKCQQALAELESVLSHLEDFFARTLVPRVLILLGGNALSPKEFYELDLSLLAPYSVDQSLSTAACLRRLFRAIFMADAFSELQAPPLMGTVVMAQGHRNCGEDWFRPKLNYRVPSRGHKLTVTLSCGRPSIRTTAWEDYIWFQAPVTFKGFRE | failed |
| MGHHHHHHSHMASPSKAVIVPGNGGGDVTTHGWYGWVKKELEKIPGFQCLAKNMPDPITARESIWLPFMETELHCDEKTIIIGHSSGAIAAMRYAETHRVYAIVLVSAYTSDLGDENERASGYFTRPWQWEKIKANCPYIVQFGSTDDPFLPWKEQQEVADRLETKLHKFTDCGHFQNTEFHELITVVKSLLKVPA | failed |
| MGHHHHHHSHMASRVRVTILFATETGKSEALAWDLGALFSCAFNPKVVCMDKYRLSCLEEERLLLVVTSTFGNGDCPGNGEKLKKSLFMLKELNNKFRYAVFGLGSSMYPRFCAFAHDIDQKLSHLGASQLTPMGEGDELSGQEDAFRSWAVQTFKAACETF | failed |
| MGHHHHHHSHMDDIFTQCREGNAVAVRLWLDNTENDLNQGDDHGFSPLHWACREGRSAVVEMLIMRGARINVMNRGDDTPLHLAASHGHRDIVQKLLQYKADINAVNEHGNVPLHYACFWGQDQVAEDLVANGALVSICNKYGEMPVDKAKAPLRELLRERAEK | not failed |
| MGHHHHHHSHMGTKRPAMLDNEADGNKTMIELSDNENPWTIFLETVDPELAASGATLPKFDKDHDVMLFLKMYDPKTR | failed |
| MGHHHHHHSHMKALLSIEMDMQVPFHDVDSMGITWHGNYLRYFEVARCKLLDELGYNYRQMRASNYAWPIIDVQIKYVKPSTFEQHITVRAELVEWENRLKINYQIRDTATGERITKGYTIQAAVDMTSQEMCFVTPEVFRSKIAPLLAKVDNE | not failed |
| MGHHHHHHSHMNLERLRKRVRQYLDQQQYQSALFWADKVASLSREEPQDIYWLAQCLYLTAQYHRAAHALRSRKLDKLYEACRYLAARCHYAAKEHQQALDVLDMEEPINKRLFEKYLKDESGFKDPSSDW | failed |
| MGHHHHHHSHMPVTEKDLAEDAPWKKIQQNTFTRWCNEHLKCVNKRIGNLQTDLSDGLRLIALLEVLSQKRMYRKYHQRPTFRQMQLENVSVALEFLDRESIKLVSIDSKAIVDGNLKLILGLVWTLILHYSISMPVWEDEGDDDAKKQTPKQRLLGWIQNKIPYLPITNFNQNWQDGKALGALVDSCAPGLCPDWESWDPQKPVDNAREAMQQADDWLGVPQVITPEEIIHPDVDEHSVMTYLSQFPKAKLKPGAPLKPKL | not failed |
| MGHHHHHHSHMRPELEDSTLRYLQDLLAWVEENQHRVDGAEWGVDLPSVEAQLGSHRGLHQSIEEFRAKIERARSDEGQLSPATRGAY | failed |
| MGHHHHHHSHMRTISFFNNKGGVGKTTLSTNVAHYFALQGKRVLYVDCDPQCNATQLMLTEEQTESIYLDGLNDEVAERNSLAKTVYAIFVPLREGESQIAAEITPMRSERFGVDVLPGHPALSQIEDLMSDSWQSALGRQTGPFRRIHWAGQLAHAMERDDRYDVIFFDVGPSLGPFNRTVLLGCDAFVTPTATDLFSFHAFGNLARWFDAWVTQYAEIHEGNMAEWKKYS | failed |
| MGHHHHHHSHMTKREYDQCRIQVRLPDGTSLTQTFRAREQLAAVRLYVELHRGEELGGGQDPVQLLSGFPRRAFSEADMERPLQELGLVPSAVLIVAKKCPS | failed |

From a protein production outcome set (Wang et al. 2014)
